Experimental data reported in article doi:10.1101/2022.09.08.506998.

Target: full-length KIT(T417I,Δ418-419) (kinase-inactive K623A) (human)
Test: cryo-EM structure

- stoichiometry N: 2
Substance: full-length KIT(T417I,Δ418-419) (kinase-inactive K623A) (receptor)
